Test results from patent US20120058906A1 (published 2012).
Positions count from the first letter of the chain named.

Experiments:
[1] = target: T1, Recombinant Human DLL4 (R&D Systems Cat#1506-D4/CF) (human, UniProt Q9NR61 27-524); assay: MSD ECL multi-spot plate; Fab 32.5 nM; blank spot 473
T1 construct: also called delta-like protein 4

[2] = target: T2, rHuman Erythropoietin R/Fc Chimera, CF (R&D Systems Cat#963-ER) (human, UniProt P19235 25-250); assay: as above
T2 construct: also called EPO R/Fc; Epo R; Fc part of the bought chimera not given
T2 sequence: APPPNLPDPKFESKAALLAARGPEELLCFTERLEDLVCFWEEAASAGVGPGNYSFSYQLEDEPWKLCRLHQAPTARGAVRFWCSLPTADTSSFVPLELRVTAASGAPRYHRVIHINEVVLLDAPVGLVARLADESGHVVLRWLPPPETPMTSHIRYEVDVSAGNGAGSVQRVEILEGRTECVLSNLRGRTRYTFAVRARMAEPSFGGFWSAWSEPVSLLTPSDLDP

[3] = target: T3, rHuman CD44/Fc Chimera, CF (R&D Systems Cat#3660-CD) (human, UniProt P16070 21-220); assay: as above
T3 construct: Fc part of the bought chimera not given

[4] = target: T4, rHuman ErbB2/Fc Chimera, CF (R&D Systems Cat#1129-ER) (human, UniProt P04626 23-652); assay: as above
T4 construct: also called HER2/neu; human epidermal growth factor 2 receptor; Fc part of the bought chimera not given

[5] = target: T5, rHuman HGF R/c-MET/Fc Chimera, CF (R&D Systems Cat#358-MT/CF) (human, UniProt P08581 25-932); assay: as above
T5 construct: also called HGF R/Fc; hepatocyte growth factor receptor; Fc part of the bought chimera not given

[6] = target: T6, rHuman EGF R/Fc Chimera, CF (R&D Systems Cat#344-ER) (human, UniProt P00533 25-645); assay: as above
T6 construct: also called epidermal growth factor receptor; Fc part of the bought chimera not given

[7] = target: T7, rHuman Notch-1/Fc Chimera, CF (R&D Systems Cat#3647-TK) (human, UniProt P46531 19-526); assay: as above
T7 construct: Fc part of the bought chimera not given

[8] = target: T8, rHuman IGF-1 sR, (IGF-1 sR), CF (R&D Systems Cat#391-GR) (human, UniProt P08069 31-932); assay: as above
T8 construct: also called insulin-like growth factor-1 soluble receptor; IGF-R1

[9] = target: T9, rHuman HGF R/c-MET/Fc Chimera, CF (R&D Systems Cat#358-MT/CF) (human, UniProt P08581 25-932); assay: MSD ECL multi-spot plate, antigen immobilized; Fab 200 nM; blank spot 588
T9 construct: Purchased Fc chimera; also called HGF R/Fc; not shown: Fc portion of the purchased chimera

[10] = target: T10, rHuman ErbB2/Fc Chimera, CF (R&D Systems Cat#1129-ER) (human, UniProt P04626 23-652); assay: as above
T10 construct: Purchased Fc chimera; also called HER2/neu; not shown: Fc portion of the purchased chimera

[11] = target: T11, rHuman IGF-1 sR (IGF-1 sR), CF (R&D Systems Cat#391-GR) (human, UniProt P08069 31-932); assay: as above
T11 construct: Purchased soluble receptor; also called insulin-like growth factor-1 soluble receptor; IGF-R1

[12] = target: T12, Recombinant Human DLL4 (R&D Systems Cat#1506-D4/CF) (human, UniProt Q9NR61 27-524); assay: as above
T12 construct: Purchased recombinant protein; also called delta-like protein 4

[13] = target: T13, rHuman CD44/Fc Chimera, CF (R&D Systems Cat#3660-CD) (human, UniProt P16070 21-220); assay: as above
T13 construct: Purchased Fc chimera; not shown: Fc portion of the purchased chimera

[14] = target: T14, rHuman Erythropoietin R/Fc Chimera, CF (R&D Systems Cat#963-ER) (human, UniProt P19235 25-250); assay: as above
T14 construct: Purchased Fc chimera; also called EPO R/Fc; Epo R; not shown: Fc portion of the purchased chimera
T14 sequence: T2 sequence

[15] = target: T15, rHuman EGF R/Fc Chimera, CF (R&D Systems Cat#344-ER) (human, UniProt P00533 25-645); assay: as above
T15 construct: Purchased Fc chimera; not shown: Fc portion of the purchased chimera

[16] = target: T16, rHuman Notch-1/Fc Chimera, CF (R&D Systems Cat#3647-TK) (human, UniProt P46531 19-526); assay: as above
T16 construct: Purchased Fc chimera; not shown: Fc portion of the purchased chimera

[17] = target: T17, rHuman P-Cadherin/Fc Chimera, CF (R&D Systems Cat#861-PC) (human, UniProt P22223 108-654); assay: as above
T17 construct: Purchased Fc chimera; not shown: Fc portion of the purchased chimera

[18] = target: T9, rHuman HGF R/c-MET/Fc Chimera, CF (R&D …); assay: MSD ECL multi-spot plate, antigen immobilized; Fab 1000 nM; blank spot 427
[19] = target: T10, rHuman ErbB2/Fc Chimera, CF (R&D …); assay: as above
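Note: blank spot per well as comparator with Hit at signal to blank ratio of 4 or more.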

B1: Fab VH1-8_IGHD2-2*01_IGHJ6*01 & L12_IGKJ1*01 (Fab, V domains shown)
VH: QVQLVQSGAEVKKPGASVKVSCKASGYTFTSYDINWVRQATGQGLEWMGWMNPNSGNTGYAQKFQGRVTMTRNTSISTAYMELSSLRSEDTAVYYCARGGYCSSTSCYADYYYYYGMDVWGQGTTVTVSS
VL: not shown
[1]
  ECL signal: 2990 ECL signal
[2]
  ECL signal: 673 ECL signal
[3]
  ECL signal: 573 ECL signal
[4]
  ECL signal: 556 ECL signal
[5]
  ECL signal: 525 ECL signal
[6]
  ECL signal: 645 ECL signal
[7]
  ECL signal: 706 ECL signal
[8]
  ECL signal: 561 ECL signal

B2: Fab VH5-51_IGHD5-18*01>3_IGHJ4*01_G100K & V3-4_IGLJ1*01 (Fab, V domains shown)
VH: EVQLVQSGAEVKKPGESLKISCKGSGYSFTSYWIGWVRQMPGKGLEWMGIIYPGDSDTRYSPSFQGQVTISADKSISTAYLQWSSLKASDTAMYYCARRKYSYGYDYFDYWGQGTLVTVSS
VL: QTVVTQEPSFSVSPGGTVTLTCGLSSGSVSTSYYPSWYQQTPGQAPRTLIYSTNTRSSGVPDRFSGSILGNKAALTITGAQADDESDYYCVLYMGSGISYVFGTGTKVTVL
notes: It was expressed as a Fab: CH1 with tags from Plasmid A and lambda CL from Plasmid E; also called Fab No. 22
[9]
  ECL signal: 1430 ECL signal
[10]
  ECL signal: 1470 ECL signal
[11]
  ECL signal: 1320 ECL signal
[12]
  ECL signal: 45400 ECL signal
[13]
  ECL signal: 1160 ECL signal
[14]
  ECL signal: 1230 ECL signal
[15]
  ECL signal: 1370 ECL signal
[16]
  ECL signal: 1250 ECL signal
[17]
  ECL signal: 1130 ECL signal

B3: Fab VH5-51_IGHD5-18*01>3_IGHJ4*01_G100R & V3-4_IGLJ1*01 (Fab, V domains shown)
VH: B2 VH with K100R
VL: B2 VL
notes: It was expressed as a Fab: CH1 with tags from Plasmid A and lambda CL from Plasmid E; also called Fab No. 23
[18]
  ECL signal: 778 ECL signal
[19]
  ECL signal: 945 ECL signal
